The test system of data set [1] is MDA-MB-231 cells on chicken CAM. Nature of the data set: Human breast cancer cells seeded on chicken CAM. The format is in vivo. The settings on record: single or multiple doses, five day old chicken embryos. The source says: The invasion of MDA-MB-231 cells in the chicken embryos was further confirmed by immunocytochemistry. […] The activity in the widely accepted chicken model, provides ample support for the belief that the methods of the invention can be used to treat cancer in animals as well as humans.

In data set [2] the test system is chorioallantoic membrane (CAM) of chick embryos. Nature of the data set: Chick embryo chorioallantoic membrane (CAM) angiogenesis assay. The class given is in vivo. The settings on record: day 7. The procedure: A suitable assay is the chick embryo chorioallantoic membrane (CAM) assay described by Crum et al. Science 230:1375 (1985). See also, U.S. Pat. No. 5,001,116, hereby incorporated by reference, which describes the CAM assay. Briefly, the Ea-4 peptide (40 µg and 80 µg), endostatin (5 µg and 10 µg) and a PBS control buffer were delivered onto the chorioallantoic membrane (CAM) of three-day old chick embryos. The CAMs were photographed in ovo with a digital camera on day 7. The angiogenic response was assessed by counting the number of intersect points of the blood vessels spread out in a defined field (vessel density). […] The effect is quantified in the histogram in FIG. 17.
Each were dissolved in PBS, and various and known amounts of hEb-peptide (250 µg, 500 µg and 1000 µg respectively) and human endostatin (10 µg and 20 µg respectively) were applied to the CAM. Pictures were taken on day 7 for vessel density determination.

A further data set has as its system 293GP or ZR-75-1 cells. Nature of the data set: Morphological change by Ea-2, Ea-3, Ea-4 peptides. The format is cell-based, human. As to conditions: 0.8 μM, 24 hours. As for the experimental part: Approximately 1-2×10^5 of MCF-7, ZR-75-1, HT-29, HepG2, 293GP, HC or SK-N-F1 cells re-suspended in their respective basal medium without fetal bovine serum (FBS) were plated in a 6-well culture chamber. Prior to plating cells, an acid-washed coverslip was placed in each well of the culture chamber. Recombinant rainbow trout E-peptides (rtEa-2, rtEa-3 or rtEa-4 peptide at 0.8 µM), human IGF-I (hIGF-1, 2.5 nM) or the same amount of control protein was added to each well and the cell cultures were incubated at 37° C. under a humidified atmosphere of 5% CO2. The control protein was prepared from E. coli cells carrying the expression plasmid but without the E-peptide gene according to the purification method described by Tian et al. (1999). Coverslips were removed from the culture chamber 24 hours after initiation of the treatment and observed under an Olympic inverted microscope equipped with differential interference phase contrast objective lenses or phase contrast objective lens (final magnification, 200×). The morphological change assay was performed at least 10 times with different batches of Ea-4 peptide preparations.
Cells were again cultured as described above. Twenty-four hours after treatment with 0.8 µM of E-peptides or the control protein, the cells were observed under an Olympic inverted microscope equipped with differential interference phase contrast objective lenses (200× magnification). […] To confirm this hypothesis, synthetic peptides specific to Ea-1-, Ea-2-, Ea-3- and Ea-4-peptide (Ea-1sp, Ea-2sp, Ea-3sp and Ea-4sp) specific sequence (see FIG. 1) were prepared and tested for their activities to induce morphological change in ZR-75-1 cells. For FIG. 6, cells were cultured in F12/DME medium without FBS as described above. Twenty-four hours after treatment with 0.8 µM of synthetic peptide containing Ea-1 sp, Ea-2sp, Ea-3sp or Ea-4sp specific sequence or the control protein, the cells were observed under an Olympic inverted microscope equipped with differential interference phase contrast objective lenses (200× magnification).

Data set [3] has as its system MDA-MB-231 and ZR-75-1 cells. Nature of the data set: Colony formation of hEb cDNA transfectants. The format is cell-based, human. The settings on record: cells transfected with hEb cDNA. As for the experimental part: Two gene constructs, CMV-IG F-1-sp-hEb-cDNA-IRES-EGFP and CMV-IRES-EGFP were used in the transfection studies. The first construct (FIG. 9B) contained hEb peptide cDNA (with a signal peptide sequence of hlGF-1), a ribosome re-entry site (IRES) and an enhanced green fluorescence protein (EGFP) marker gene. […] The expression of both gene constructs was driven by a promoter from CMV.
Transfection of the cells was accomplished as follows. MDA-MB-231 cells were cultured in F12/DMEM supplemented with 10% FBS and 10 ng/ml of insulin to 90% confluence. About 5×10^6 cells were harvested and resuspended in 1 mL of serum-free F12/DMEM containing 20 µg of un-linearized constructs. The cells were electroporated in a BRL Cell-Porator using the following settings: low .OMEGA., 1180 micro Faraday (µF) capacitance, and two pulses at 200 volts. Following electroporation, cells were resuspended in 12 mL of fresh growth medium and seeded into a 6-well plate to recover. Permanent transfectants expressing green fluorescence protein (GFP) were enriched in a medium containing neomycin (G418) at 1 mg/mL for ten days and followed with 500 µg/mL for continuous maintenance. Individual green cell clones of transfectants were isolated from the enriched population by the method of serial dilution. […]

The subject of data set [4] is various human cancer cell lines. As to the kind of experiment: Killing of cancer cells in vitro (% cell growth). The format is cell-based. As to conditions: various amounts, about 48 hours. As for the experimental part: FIG. 20 depicts the effects of synthetic hEB-peptide on killing of various human cancer cells. About 1×10^6 cells of cancer cells were seeded in each well of a 96-well plate and various amounts of synthetic hEb-peptide were added as indicated. The cells were cultured for about 48 hours and the % of cell growth was determined.
About 1×10^6 cells of various human cancer cell lines were seeded in each well of a 96-well culture plate with various amounts of synthetic human Eb-peptide (shEb-peptide). It is specifically contemplated by the inventors that in any of the examples of the preferred embodiments described herein, synthetic or recombinant E domain peptides can be used. After incubation for about 48 hours, the growth of cells in each well was determined and compared to non-hEb-peptide controls.

The subject of data set [5] is CCD-1112SK primary baby foreskin cells.
Text: Apoptosis of cells can also be detected by terminal deoxynucleotidyl transferase mediated dUTP nick end labeling (TUNEL) assay.

B1: rtEa-4: recombinant Ea-4 peptide of rainbow trout pro-IGF-I, 74 amino acid residues (SEQ ID NO: 2) (protein)
chain: RSVRAQRHTDMPRTPKVSTAVQNVDRGTERRTAQHPDKTKTKKKPLSGHSHPSCKEVHQKNSSRGNTGGRNYRM
modifications: Oncorhynchus mykiss
Regarding B1, in data set [1], the “growth and invasion of MDA-MB-231 cells and induction of blood vessel formation on chicken CAM” value was “inhibited”. In addition, the blood vessel branching entry in data set [2] (40 μg and 80 μg on CAM of three-day old chick embryos) is given as “inhibitory effect”. Further, the “induction of morphological change” value in the data set on 293GP or ZR-75-1 cells was “able to induce morphological change”.

B2: hEb: chemically synthesized human Eb peptide of pro-IGF-I, 77 amino acid residues (SEQ ID NO:1) (peptide, listed as Homo sapiens)
chain: RSVRAQRHTDMPKTQKYQPPSTNKNTKSQRRKGWPKTHPGGEQKEGTEASLQIRGKKKEQRREIGSRNAECRGKKGK
Turning to B2, in data set [3], the colony formation activities result was “greatly reduced or diminished completely”. In addition, the “growth and invasion of MDA-MB-231 cells and induction of blood vessel formation on chicken CAM” value in data set [1] is given as “inhibited”. Also, in data set [2] (250, 500 and 1000 μg on CAM), the vessel density result is listed as “dose-dependent reduction”. For the same molecule, the “killing of cancer cells” value in data set [4] is “different degrees of killing”. Also, in data set [5], the Apoptosis result was “−”.

These data come from patent publication US7700353B2, “Compositions and methods for inducing apoptosis in tumor cells” (E-P Therapeutics, Inc., priority 1998, dated 2010).
